Changes are numbered by the printed parent chain.
B1: PRT-188 (protein)
chain: MANQEIRYSEVTPYHVTSVWTKGVTPPANFRKIVDGNIAYYAAPYVANQGWYDITKTFNGKDDLLCGAATAGNMLHWWFDQNKDQIKRYLEEHPEKQKINFNGEQMFDVKELNTYESDHGYRDKSKLFEYFKEKAFPYLSTKHLGVFPDHVIDMFINGYRLSLTNHGPTPVKEGSKDPRGGIFDAVFTRGDQSKLLTSRHDFKEKNLKEISDLIKKELTEGKALGLSHTYANVRINHVINLWGADFDSNGNLKAIYVTDSDDKKLTIGDERIGMKKYFVGVNSAGKVAISAKEIKEDNIGAQVLGLFTLSTGQDSWNQTN
B2: PRT-189 (protein)
chain: MANQEIRYSEVTPYHVTSVWTKGVTPPDHDFANFTQGEDVFHAPYVANQGWYDITKTFNGKDDLLCGAATAGNMLHWWFDQNKDQIKRYLEEHPEKQKINFNGEQMFDVKEAIDTKNHQLDSKLFEYFKEKAFPYLSTKHLGVFPDHVIDMFINGYRLSLTNHGPTPVKEGSKDPRGGIFDAVFTRGDQSKLLTSRHDFKEKNLKEISDLIKKELTEGKALGLSHTYANVRINHVINLWGADFDSNGNLKAIYVTDSDSNASIGMKKYFVGVNSAGKVAISAKEIKEDNIGAQVLGLFTLSTGQDSWNQTN
B3: PRT-190 (protein)
chain: B2 chain with A32R, N33K, F34I, T35V, Q36D
B4: PRT-191 (protein)
chain: MANQEIRYSEVTPYHVTSVWTKGVTPPANFTQGEDVFHAPYVANQGWYDITKTFNGKDDLLCGAATAGNMLHWWFDQNKDQIKRYLEEHPEKQKINFNGEQMFDVKEAIDTKNHQLDSKLFEYFKEKAFPYLSTKHLGVFPDHVIDMFINGYRLSLTNHGPTPVKEGSKDPRGGIFDAVFTRGDQSKLLTSRHDFKEKNLKEISDLIKKELTEGKALGLSHTYANVRHSINHVINLWGADFDSNGNLKAIYVTDSDSNASIGMKKYFVGVNSAGKVAISAKEIKEDNIGAQVLGLFTLSTGQDSWNQTN
B5: PRT-192 (protein)
chain: MANQEIRYSEVTPYHVTSVWTKGVTPPANFTQGEDVFHAPYVANQGWYDITKTFNGKDDLLCGAATAGNMLHWWFDQNKDQIKRYLEEHPEKQKINFNGEQMFDVKEAIDTKNHQLDSKLFEYFKEKAFPYLSTKHLGVFPDHVIDMFINGYRLSLTNHGPTPVKEGSKDPRGGIFDAVFTRGDQSKLLTSRHDFKEKNLKEISDLIKKELTEGKALGLSHTYANVRINHVINLWGADFDSNGNLKAIYVTDSDDKKLTISNASIGMKKYFVGVNSAGKVAISAKEIKEDNIGAQVLGLFTLSTGQDSWNQTN
B6: PRT-193 (protein)
chain: B5 chain with S261G, N262D, A263E, S264R

What follows are proteins tested against pooled human IgG (human IgG1,2,3 and 4).

Row | Protein | Enzyme Activity Endpoint Assay: Fab'2 | Enzyme Activity Endpoint Assay: Fc | Enzyme Activity Endpoint Assay: IgG | Enzyme Activity Endpoint Assay: scIgG
1 | B1 | 0 ng/µL | 40 ng/µL | 905 ng/µL | 25 ng/µL
2 | B2 | 469 ng/µL | 307 ng/µL | 0 ng/µL | 101 ng/µL
3 | B3 | 323 ng/µL | 278 ng/µL | 76 ng/µL | 145 ng/µL
4 | B4 | 36 ng/µL | 183 ng/µL | 161 ng/µL | 358 ng/µL
5 | B5 | 24 ng/µL | 204 ng/µL | 109 ng/µL | 461 ng/µL
6 | B6 | 39 ng/µL | 193 ng/µL | 181 ng/µL | 355 ng/µL
